Test results from patent WO2007039645A1.

Target: VSG on Trypanosoma brucei brucei AnTat 1.1 parasites (Trypanosoma brucei brucei AnTat 1.1)
Assay: cell-based or functional assay
Conditions: scale: % of the parasites lysed at 10 μg/ml

Sequence of VSG on Trypanosoma brucei brucei AnTat 1.1 parasites (Trypanosoma brucei brucei AnTat 1.1) (P06015 30-480): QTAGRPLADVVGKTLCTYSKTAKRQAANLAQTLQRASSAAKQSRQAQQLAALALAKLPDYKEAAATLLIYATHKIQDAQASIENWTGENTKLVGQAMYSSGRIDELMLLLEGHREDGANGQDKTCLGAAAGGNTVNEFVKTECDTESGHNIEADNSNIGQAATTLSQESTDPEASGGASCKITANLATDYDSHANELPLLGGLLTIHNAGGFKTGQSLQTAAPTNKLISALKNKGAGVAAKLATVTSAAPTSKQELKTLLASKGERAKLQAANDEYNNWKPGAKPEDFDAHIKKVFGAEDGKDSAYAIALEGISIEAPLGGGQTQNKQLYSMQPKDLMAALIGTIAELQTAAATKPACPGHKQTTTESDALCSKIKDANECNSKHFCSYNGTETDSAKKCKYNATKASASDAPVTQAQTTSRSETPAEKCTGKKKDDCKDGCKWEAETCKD

Which trypanolytic activity does the source give for “NbAn33-Tr-apoL-I (from UniProt O14791 28-342)” here?
The trypanolytic activity was 100.
